This assay addresses 10 amino acid biotinylated and ADP-ribosylated peptide [ARTK(Bio)QTARK (Aoa-RADP)S]. Nature of the assay: AlphaScreen or HTRF.

Chain of MERS-CoV Mac1, His-tagged (domain or fragment) (K9N638 1110-1276 limits assumed): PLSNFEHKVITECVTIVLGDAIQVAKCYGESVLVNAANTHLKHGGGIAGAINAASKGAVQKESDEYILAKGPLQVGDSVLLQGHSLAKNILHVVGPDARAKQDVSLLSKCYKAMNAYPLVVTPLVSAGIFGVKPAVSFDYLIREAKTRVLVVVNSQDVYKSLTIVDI

Turning to “human macrodomain Mdo2, His-tagged (domain or fragment)”, the macrodomain concentration at the maximum AS signal was 0.04 µM.
“MERS-CoV Mac1, His-tagged (domain or fragment)”: the macrodomain concentration at the maximum AS signal lay in the range of 1.25 to 2.5 µM.
The result for “SARS-CoV-2 Mac1 (conserved macrodomain of non-structural protein 3), His-tagged (from UniProt P0DTD1) (domain or fragment)” reads 0.625 µM.
The result for “SARS-CoV Mac1, His-tagged (domain or fragment)” reads 1.25 to 2.5 µM.

Source of the values: publication PMC9119168.
